These results are taken from paper PMC9352346 (2022).

B1: GFP-Smad4-WT [not stated] / GST-Arl15-AL [human] (parent complex)
chain 1: MDNMSITNTPTSNDACLSIVHSLMCHRQGGESETFAKRAIESLVKKLKEKKDELDSLITAITTNGAHPSKCVTIQRTLDGRLQVAGRKGFPHVIYARLWRWPDLHKNELKHVKYCQYAFDLKCDSVCVNPYHYERVVSPGIDLSGLTLQSNAPSSMMVKDEYVHDFEGQPSLSTEGHSIQTIQHPPSNRASTETYSTPALLAPSESNATSTANFPNIPVASTSQPASILGGSHSEGLLQIASGPQPGQQQNGFTGQPATYHHNSTTTWTGSRTAPYTPNLPHHQNGHLQHHPPMPPHPGHYWPVHNELAFQPPISNHPAPEYWCSIAYFEMDVQVGETFKVPSSCPIVTVDGYVDPSGGDRFCLGQLSNVHRTEAIERARLHIGKGVQLECKGEGDVWVRCLSDHAVFVQSYYLDREAGRAPGDAVHKIYPSAYIKVFDLRQCHRQMQQQAATAQAAAAAQAAAVAGNIPGPGSVGGIAPAISLSAAAGIGVDDLRRLCILRMSFVKGWGPDYPRQSIKETPCWIEIHLHRALQLLDEVLHTMPIADPQPLD
chain 2: MSDLRITEAFLYMDYLCFRALCCKGPPPARPEYDLVCIGLTGSGKTSLLSKLCSESPDNVVSTTGFSIKAVPFQNAILNVKELGGLDNIRKYWSRYYQGSQGVIFVLDSASSEDDLEAARNELHSALQHPQLCTLPFLILANHQDKPAARSVQEIKKYFELEPLARGKRWILQPCSLDDMDALKDSFSQLINLLEEKDHEAVRM
B2: Arl15-AL-Myc [human] / GST-Smad4 [not stated] (parent complex)
chain 1: B1 chain 2
chain 2: B1 chain 1

The variants in one experiment derive from B1. In words: GST pull-down, immunoblot band quantification; HEK293T cell lysates; bead-immobilized GST-Arl15-AL; n=3; parent: 1; read off a plot. (In general: In western blotting, separated proteins are transferred to a membrane and probed.)
Take chain 1 D493H: the ratio to parent was approximately 0.9.
The same measure, in the same setting: the figure for chain 1 R496H is approximately 1.1.
For chain 1 H541Y, the ratio to parent was approximately 0.37.
On the same count and under the same terms, as for chain 1 A532D, the figure is approximately 0.2; as for chain 1 E538K, approximately 0.29; as for chain 1 L495P, approximately 1.3.
The same measure, in the same setting: as for chain 1 M447K, the figure is approximately 1.1; as for chain 1 R497H, approximately 1.

The variants in another experiment derive from B2. As to the kind of experiment: GST pull-down, immunoblot band quantification; HeLa cell lysates; bead-immobilized GST-Smad4; parent: 100.
chain 1 R150H: the percent of parent is 87.
The same measure, in the same setting: the figure for chain 1 D58N is 93.
